Numbering of substitutions follows the chain as printed.
B1: human MA39 scFv (anti-CEA single-chain antibody fragment) (scFv, V domains shown)
VH: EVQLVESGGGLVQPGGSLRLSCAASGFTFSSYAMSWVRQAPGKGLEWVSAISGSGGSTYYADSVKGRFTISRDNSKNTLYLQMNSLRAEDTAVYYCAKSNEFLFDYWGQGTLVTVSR
VL: SSELTQDPAVSVALGQTVRITCQGDSLRSYYASWYQQKPGQAPVLVIYGKNNRPSGIPDRFSGSSSGNTASLTITGAQAEDEADYYCNSSYPWLPYVVFGGGTKLTVL
notes: clone from the ETH-2 synthetic human scFv library (DP47 heavy chain; DPK22 or DPL16 light chain, randomised CDR3s); the ELISA methods use soluble scFv; The methods name the host once as 'HB121'; also called scFv MA39; M39; source: E. coli HB2151, periplasmic extract, purified (Ni-NTA agarose); also culture supernatant
B2: B3 (antibody, V domains shown)
VH: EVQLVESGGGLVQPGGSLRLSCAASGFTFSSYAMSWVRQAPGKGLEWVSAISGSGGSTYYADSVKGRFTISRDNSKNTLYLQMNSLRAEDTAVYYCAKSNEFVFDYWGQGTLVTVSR
VL: B1 VL with G15R, G24R
B3: E14 (antibody, V domains shown)
VH: EVQLAESGGGLVQPGGSLRLSCAASGFTFSSYAMSTVRQAPGKGLEWVSAISGSGGSTYYADSVMGRFTISRDNSKNTLYLQMNSLRAEDTAVYYCAKSNEFLFDYWGQGTLVTVSR
VL: B1 VL with S29G, Y30S, Y35H, G63V, P92A
B4: E15 (antibody, V domains shown)
VH: B3 VH with A5V, A23T, S31R, M65K
VL: B1 VL with Y30S, G63V, P92A
B5: B17 (antibody, V domains shown)
VH: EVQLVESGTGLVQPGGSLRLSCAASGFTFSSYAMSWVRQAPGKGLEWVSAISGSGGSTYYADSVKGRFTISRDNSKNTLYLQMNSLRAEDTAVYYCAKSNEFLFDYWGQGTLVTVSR
VL: B1 VL
B6: E13 (antibody, V domains shown)
VH: B3 VH with S7P, F27L, V37I, M65K, K76E
VL: B1 VL with T17A, Y30T, T75A, P92A
B7: E1 (antibody, V domains shown)
VH: B3 VH with S21P, S25P, M65K
VL: B1 VL with Q23R, Y30S, G63V, P92A, L94P
B8: E4 (antibody, V domains shown)
VH: B3 VH with A33G, M65K
VL: B1 VL with S1L, V10A, Y30S, S55P, G63V, P92A
B9: E3 (antibody, V domains shown)
VH: B3 VH with Q13R, M65K, K76E
VL: B1 VL with Y30S, P92A
B10: B5 (antibody, V domains shown)
VH: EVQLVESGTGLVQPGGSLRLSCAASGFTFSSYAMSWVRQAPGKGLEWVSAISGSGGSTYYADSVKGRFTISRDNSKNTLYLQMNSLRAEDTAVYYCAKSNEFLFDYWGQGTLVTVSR
VL: B1 VL with S11P, G15R
B11: E5 (antibody, V domains shown)
VH: B3 VH with F27L, A33G, M65K
VL: B1 VL with L14S, Y30S, Q37R, N68S, P92A
B12: E9 (antibody, V domains shown)
VH: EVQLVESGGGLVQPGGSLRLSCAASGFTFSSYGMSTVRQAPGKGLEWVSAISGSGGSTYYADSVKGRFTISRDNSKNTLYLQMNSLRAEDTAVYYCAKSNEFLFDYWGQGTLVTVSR
VL: B1 VL with Y30S, D59G, G63V, P92A
B13: E6 (antibody, V domains shown)
VH: B3 VH with A5V, S7T, T28A, A33G, M65K
VL: B1 VL with Y30S, Y31H, Q41R, D59A, G63A, P92A
B14: E2 (antibody, V domains shown)
VH: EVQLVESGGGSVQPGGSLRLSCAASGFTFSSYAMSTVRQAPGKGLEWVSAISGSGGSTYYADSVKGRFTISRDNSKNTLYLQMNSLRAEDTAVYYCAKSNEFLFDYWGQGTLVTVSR
VL: B1 VL with V12A, L14W, Q23R, D25G, R28G, Y30S, Y31R, K50R, T73A, P92A

target: T1, CEA, endogenous in human colon carcinoma LoVo cells (Homo sapiens (LoVo cells), UniProt P06731); test: flow cytometry on cells; living/intact human cells; 5 ug/mL scFv in PBS 1% BSA, 1 h at RT; anti-FLAG and FITC goat anti-mouse IgG; grades by percent stained cells; conditions: one partner purified
T1 construct: carcinoembryonic antigen (CEA, CEACAM5), endogenous in LoVo colorectal carcinoma cells; which member carries the signal on cells is not separated; also called CEA in LoVo cells; 200 kDa band of LoVo cellular extract; source: endogenous, LoVo cells (on cells) and LoVo cellular extract
T1 sequence (P06731 35-685): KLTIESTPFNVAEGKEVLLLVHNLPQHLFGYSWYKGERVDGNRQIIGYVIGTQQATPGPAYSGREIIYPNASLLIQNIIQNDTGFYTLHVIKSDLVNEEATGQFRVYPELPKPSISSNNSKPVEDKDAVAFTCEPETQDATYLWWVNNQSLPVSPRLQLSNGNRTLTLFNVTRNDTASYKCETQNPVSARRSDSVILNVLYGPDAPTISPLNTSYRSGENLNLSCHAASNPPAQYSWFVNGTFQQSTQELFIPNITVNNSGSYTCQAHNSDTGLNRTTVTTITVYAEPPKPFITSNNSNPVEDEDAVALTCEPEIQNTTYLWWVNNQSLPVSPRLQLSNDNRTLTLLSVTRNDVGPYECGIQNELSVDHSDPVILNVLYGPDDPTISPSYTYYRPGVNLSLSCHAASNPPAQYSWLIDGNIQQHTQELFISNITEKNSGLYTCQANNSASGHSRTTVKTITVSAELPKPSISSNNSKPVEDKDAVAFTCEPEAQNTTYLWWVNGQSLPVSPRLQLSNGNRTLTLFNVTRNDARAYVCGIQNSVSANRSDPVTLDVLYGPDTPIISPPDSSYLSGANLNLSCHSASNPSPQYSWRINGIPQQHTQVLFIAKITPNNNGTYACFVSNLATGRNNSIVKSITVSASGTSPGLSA

Binder	binding result
B1	binds

target: T2, carcinoembryonic antigen (CEA), human purified protein (Sigma) (Homo sapiens, UniProt P06731, biotin (biotinamidohexanoic acid N-hydroxysuccinimide ester) for selection and for the ELISA on streptavidin-coated plates; biotin-free for directly coated plates); test: not given; conditions: not given
T2 sequence (P06731 35-685): as above

Binder	binding result
B2	binds
B3	binds
B4	binds
B5	binds
B6	binds
B7	binds
B8	binds
B9	binds
B10	binds
B11	binds
B12	binds
B13	binds
B14	binds

target: T2, carcinoembryonic antigen (CEA), human …; test: ELISA; biotinylated CEA (1 ug/mL) on streptavidin-coated plates; scFv in blocking buffer (MPBS) 1 h at RT; anti-FLAG M2 and anti-mouse HRP; conditions: one partner purified

Binder	binding result
B1	binds
